The data set has as its target T1, Mre11-W243R (Homo sapiens, UniProt P49959 1-708, W243R).
T1 sequence: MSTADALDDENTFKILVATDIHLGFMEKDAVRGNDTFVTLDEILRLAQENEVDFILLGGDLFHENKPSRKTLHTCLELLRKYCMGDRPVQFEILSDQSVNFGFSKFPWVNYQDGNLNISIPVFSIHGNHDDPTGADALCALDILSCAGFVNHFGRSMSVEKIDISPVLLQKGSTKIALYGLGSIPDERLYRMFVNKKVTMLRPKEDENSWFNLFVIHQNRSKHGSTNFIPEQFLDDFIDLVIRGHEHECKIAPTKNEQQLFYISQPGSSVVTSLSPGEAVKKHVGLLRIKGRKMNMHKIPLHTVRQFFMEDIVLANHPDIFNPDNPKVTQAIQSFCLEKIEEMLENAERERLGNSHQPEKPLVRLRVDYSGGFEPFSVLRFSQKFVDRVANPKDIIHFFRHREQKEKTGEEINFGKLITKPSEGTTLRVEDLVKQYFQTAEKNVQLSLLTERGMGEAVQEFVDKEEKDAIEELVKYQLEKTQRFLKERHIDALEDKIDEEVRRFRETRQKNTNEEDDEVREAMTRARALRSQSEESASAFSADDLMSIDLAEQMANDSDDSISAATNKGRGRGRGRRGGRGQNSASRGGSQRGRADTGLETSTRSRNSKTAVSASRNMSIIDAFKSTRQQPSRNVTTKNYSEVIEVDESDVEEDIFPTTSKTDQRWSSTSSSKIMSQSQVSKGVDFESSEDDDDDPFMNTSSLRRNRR
Description: EMSA.

The results in this text go back to publication PMC3526295.

B1: ssDNA90 (ssDNA)
DNA: AATTCTCATTTTACTTACCGGACGCTATTAGCAGTGGCAGATTGTACTGAGAGTGCACCATATGCGGTGTGAAATACCGCACAGATGCGT
As to B1, the binding result is “binds”.

B2: dsDNA90 (dsDNA)
DNA 1: AATTCTCATTTTACTTACCGGACGCTATTAGCAGTGGCAGATTGTACTGAGAGTGCACCATATGCGGTGTGAAATACCGCACAGATGCGT
DNA 2: ACGCATCTGTGCGGTATTTCACACCGCATATGGTGCACTCTCAGTACAATCTGCCACTGCTAATAGCGTCCGGTAAGTAAAATGAGAATT
As for B2, the binding result is given as “binds”.
